Measured values from patent publication US20170355757A1 (Regeneron, published 2017).
Residue numbers refer to the chain shown, from its start. In names and notes the source's numbering stands.

Columns and labels:
human C5 R885C-mmh [1] = molecular target: T1, human C5 R885C-mmh (human, UniProt P01031 19-1676); assay: SPR, mAb captured via anti-hFc, 25C
T1 construct: also called human C5 variant R885C
Protocol: (§1) Equilibrium dissociation constants (KD values) for C5 binding to purified anti-C5 antibodies were determined using a real-time surface plasmon resonance biosensor assay on a Biacore T200 instrument. The Biacore sensor surface was derivatized by amine coupling with a monoclonal mouse anti-human Fc antibody (GE Healthcare, # BR-1008-39) to capture anti-C5 antibodies expressed with human Fc constant regions. Biacore binding studies were conducted in HBST running buffer (0.01M HEPES pH 7.4, 0.15M NaCl, 3 mM EDTA, 0.05% v/v Surfactant P20).
(§2) Human C5 was obtained from a commercial source (EMD). Other C5 reagents were expressed with a C-terminal myc-myc-hexahistidine tag (subsequently referred to as C5-mmh). […] Association of all the C5 reagents to each of the captured monoclonal antibodies was monitored for 3 minutes and their dissociation in HBST running buffer was monitored for 8 minutes. All the binding kinetics experiments were performed at either 25° C. or 37° C. Kinetic association (kₐ) and dissociation (kd) rate constants were determined by fitting the real-time sensorgrams to a 1:1 binding model using Scrubber 2.0c curve fitting software. Binding dissociation equilibrium constants (KD) and dissociative half-lives (t %) were calculated from the kinetic rate constants as: KD (M)=kd/kₐ and t_{1/2} (min)=In2/(60×kd)

human C5 R885H-mmh [2] = molecular target: T2, human C5 R885H-mmh (human, UniProt P01031 19-1676); assay: SPR, mAb captured via anti-hFc, 25C
T2 construct: also called human C5 variant R885H
Protocol: as §1, §2

monkey C5-mmh = molecular target: T3, monkey C5-mmh (monkey, UniProt P01031 19-1676 (human entry), limits assumed); assay: SPR, mAb captured via anti-hFc, 37C
T3 construct: Recombinant monkey C5 with a C-terminal myc-myc-hexahistidine tag
T3 chain: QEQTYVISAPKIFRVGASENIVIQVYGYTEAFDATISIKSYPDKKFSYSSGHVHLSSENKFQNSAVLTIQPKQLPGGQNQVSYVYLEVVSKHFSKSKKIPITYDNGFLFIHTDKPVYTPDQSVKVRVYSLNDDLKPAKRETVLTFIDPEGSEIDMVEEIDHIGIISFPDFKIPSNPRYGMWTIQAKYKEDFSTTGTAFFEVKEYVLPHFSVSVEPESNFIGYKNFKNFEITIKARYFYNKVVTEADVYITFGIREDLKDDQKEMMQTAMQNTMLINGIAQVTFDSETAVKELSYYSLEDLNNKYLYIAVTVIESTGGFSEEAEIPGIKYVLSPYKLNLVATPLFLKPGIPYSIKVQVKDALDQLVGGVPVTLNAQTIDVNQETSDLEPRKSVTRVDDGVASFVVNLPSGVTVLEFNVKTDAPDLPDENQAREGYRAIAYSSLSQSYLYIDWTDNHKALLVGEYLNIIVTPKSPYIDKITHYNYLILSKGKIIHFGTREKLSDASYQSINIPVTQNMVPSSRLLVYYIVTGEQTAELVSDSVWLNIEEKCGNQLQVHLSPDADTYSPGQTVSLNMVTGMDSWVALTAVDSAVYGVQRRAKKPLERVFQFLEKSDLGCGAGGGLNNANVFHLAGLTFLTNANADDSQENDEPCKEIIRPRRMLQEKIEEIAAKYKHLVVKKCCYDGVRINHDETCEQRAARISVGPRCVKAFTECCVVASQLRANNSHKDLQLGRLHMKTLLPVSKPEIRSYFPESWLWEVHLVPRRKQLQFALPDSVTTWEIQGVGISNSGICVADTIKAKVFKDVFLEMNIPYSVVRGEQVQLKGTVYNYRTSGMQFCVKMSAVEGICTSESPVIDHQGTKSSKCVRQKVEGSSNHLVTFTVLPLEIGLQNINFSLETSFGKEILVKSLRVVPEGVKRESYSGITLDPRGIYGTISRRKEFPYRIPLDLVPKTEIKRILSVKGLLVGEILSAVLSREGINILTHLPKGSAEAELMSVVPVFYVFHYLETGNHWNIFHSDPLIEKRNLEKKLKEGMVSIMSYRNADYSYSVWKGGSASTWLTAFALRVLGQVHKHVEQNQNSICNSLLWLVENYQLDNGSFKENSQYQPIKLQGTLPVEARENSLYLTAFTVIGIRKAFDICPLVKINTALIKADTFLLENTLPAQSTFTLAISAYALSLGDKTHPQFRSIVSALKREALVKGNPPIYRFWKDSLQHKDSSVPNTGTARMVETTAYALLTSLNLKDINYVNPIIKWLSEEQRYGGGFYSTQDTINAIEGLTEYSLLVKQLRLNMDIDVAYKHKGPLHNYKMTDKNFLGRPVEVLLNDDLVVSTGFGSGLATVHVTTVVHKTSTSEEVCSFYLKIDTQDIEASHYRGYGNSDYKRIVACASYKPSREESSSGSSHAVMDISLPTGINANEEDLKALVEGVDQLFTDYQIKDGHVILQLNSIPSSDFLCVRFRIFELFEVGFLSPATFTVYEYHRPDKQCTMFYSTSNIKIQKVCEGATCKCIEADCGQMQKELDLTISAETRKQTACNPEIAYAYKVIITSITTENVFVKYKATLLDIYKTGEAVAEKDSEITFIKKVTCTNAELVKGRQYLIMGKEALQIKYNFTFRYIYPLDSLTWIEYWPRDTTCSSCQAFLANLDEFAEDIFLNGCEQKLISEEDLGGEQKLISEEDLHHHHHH
Protocol: as §1, §2

human C5 R885C-mmh [3] = molecular target: T1, human C5 R885C-mmh; assay: SPR, mAb captured via anti-hFc, 37C
Protocol: as §1, §2

human C5 R885H-mmh [4] = molecular target: T2, human C5 R885H-mmh; assay: SPR, mAb captured via anti-hFc, 37C
Protocol: as §1, §2

human C5 = molecular target: T4, human C5 (human, UniProt P01031 19-1676); assay: SPR, mAb captured via anti-hFc, dissociation at pH7.4 vs pH6.0, 25C
T4 construct: Bought human C5 (EMD #204888, said elsewhere to be purified from plasma); also called hC5; complement component 5
Protocol: Effect of pH on the rate of dissociation of recombinant human C5 bound to purified anti-C5 monoclonal antibodies was determined using a real-time surface plasmon resonance biosensor using a Biacore T200 instrument. The Biacore sensor surface was first derivatized by amine coupling with a monoclonal mouse anti-human Fc antibody (GE, # BR-1008-39) to capture anti-C5 monoclonal antibodies expressed with human IgG4 Fc. All Biacore binding studies were performed using two running buffers PBS-T, pH7.4 (0.01M Na₂HPO₄/NaH₂PO₄, 0.15M NaCl, 0.05% v/v Tween-20, adjusted to pH7.4) and PBS-T, pH6.0 (0.01M Na₂HPO₄/NaH₂PO₄, 0.15M NaCl, 0.05% v/v Tween-20, adjusted to pH6.0). […] Binding dissociative half-lives (t %) were calculated from kd as: […]

B1: H4H12171P (antibody, human IgG4, V domains shown)
VH: EVQLVESGGGVVRPGGSLRLSCAASGFTFDEYGMTWVRQVPGKGLEWVSGITWNGGFTDYTDSVKGRFTSSRDNAKNSLYLQMNSLRAEDTALYYCARDGYSSSWGAYDIWGQGTMVTVSS
VL: DIQMTQSPSSLSASVGDRVTITCRASQSISTYLNWYQQKPGKAPKLLIYAASSLQSGVPLRFSGSGSGTDFTLTISSLQPEDFASYFCQQSYSTPYTFGQGTKLEIK
notes: Human IgG4 Fc with S108P hinge mutation (H4H)
- 100 nM Human C5 R885C-mmh Bound (RU) (human C5 R885C-mmh [1]): 51 RU
- Kd (human C5 R885C-mmh [1]): 0.366 nM
- koff (human C5 R885C-mmh [1]): 0.000139 s⁻¹
- kon (human C5 R885C-mmh [1]): 379000 M⁻¹ s⁻¹
- t1/2 (human C5 R885C-mmh [1]): 83 min
- 100 nM Human C5 R885H-mmh Bound (RU) (human C5 R885H-mmh [2]): 51 RU
- Kd (human C5 R885H-mmh [2]): 0.216 nM
- koff (human C5 R885H-mmh [2]): 0.000142 s⁻¹
- kon (human C5 R885H-mmh [2]): 659000 M⁻¹ s⁻¹
- t1/2 (human C5 R885H-mmh [2]): 81 min
- 100 nM monkey C5-mmh Bound (RU) (monkey C5-mmh): 78 RU
- Kd (monkey C5-mmh): 1.85 nM
- koff (monkey C5-mmh): 0.00103 s⁻¹
- kon (monkey C5-mmh): 556000 M⁻¹ s⁻¹
- t1/2 (monkey C5-mmh): 11 min
- 100 nM Human C5 R885C-mmh Bound (RU) (human C5 R885C-mmh [3]): 78 RU
- Kd (human C5 R885C-mmh [3]): 2.01 nM
- koff (human C5 R885C-mmh [3]): 0.000957 s⁻¹
- kon (human C5 R885C-mmh [3]): 477000 M⁻¹ s⁻¹
- t1/2 (human C5 R885C-mmh [3]): 12 min
- 100 nM Human C5 R885H-mmh Bound (RU) (human C5 R885H-mmh [4]): 80 RU
- Kd (human C5 R885H-mmh [4]): 1.63 nM
- koff (human C5 R885H-mmh [4]): 0.000963 s⁻¹
- kon (human C5 R885H-mmh [4]): 592000 M⁻¹ s⁻¹
- t1/2 (human C5 R885H-mmh [4]): 12 min
- t1/2 Ratio pH7.4/pH6.0 (human C5): 0.6

B2: H4H11683N (antibody, V domains shown)
VH: QVQLVESGGGVVQPGRSLRLSCVASGFTFSSYGIHWVRQAPGKGLEWVAVIWDDGNNINYSDSVKGRFIISRDNSRKTVYLQMNSLRGEDTAVYYCARDAPIAPVPDYWGQGTLVTVSS
VL: DIQMTQSPSTLSASVGDRVTITCRASQSISSWLAWYQQKPGKAPKLLIYKASSLDTGVPSRFSGSGSGTEFTLTISSLQPDDFATYYCQQYNTYSYTFGLGTKLEIK
notes: also called H2M11683N
- 100 nM Human C5 R885C-mmh Bound (RU) (human C5 R885C-mmh [1]): 116 RU
- Kd (human C5 R885C-mmh [1]): 0.479 nM
- koff (human C5 R885C-mmh [1]): 0.000239 s⁻¹
- kon (human C5 R885C-mmh [1]): 499000 M⁻¹ s⁻¹
- t1/2 (human C5 R885C-mmh [1]): 48 min
- 100 nM Human C5 R885H-mmh Bound (RU) (human C5 R885H-mmh [2]): 118 RU
- Kd (human C5 R885H-mmh [2]): 0.468 nM
- koff (human C5 R885H-mmh [2]): 0.000246 s⁻¹
- kon (human C5 R885H-mmh [2]): 526000 M⁻¹ s⁻¹
- t1/2 (human C5 R885H-mmh [2]): 47 min
- 100 nM monkey C5-mmh Bound (RU) (monkey C5-mmh): 303 RU
- Kd (monkey C5-mmh): 2.16 nM
- koff (monkey C5-mmh): 0.00115 s⁻¹
- kon (monkey C5-mmh): 535000 M⁻¹ s⁻¹
- t1/2 (monkey C5-mmh): 10 min
- 100 nM Human C5 R885C-mmh Bound (RU) (human C5 R885C-mmh [3]): 78 RU
- Kd (human C5 R885C-mmh [3]): 3.25 nM
- koff (human C5 R885C-mmh [3]): 0.00143 s⁻¹
- kon (human C5 R885C-mmh [3]): 438000 M⁻¹ s⁻¹
- t1/2 (human C5 R885C-mmh [3]): 8 min
- 100 nM Human C5 R885H-mmh Bound (RU) (human C5 R885H-mmh [4]): 81 RU
- Kd (human C5 R885H-mmh [4]): 2.69 nM
- koff (human C5 R885H-mmh [4]): 0.00147 s⁻¹
- kon (human C5 R885H-mmh [4]): 548000 M⁻¹ s⁻¹
- t1/2 (human C5 R885H-mmh [4]): 8 min
- t1/2 Ratio pH7.4/pH6.0 (human C5): 2

B3: H4H12166P7 (antibody, human IgG4, V domains shown)
VH: QVQLQESGPGLVKPSETLSLTCTVSGDSVSSSYWTWIRQPPGKGLEWIGYIYYSGSSNYNPSLKSRATISVDTSKNQFSLKLSSVTAADTAVYYCAREHNVDTTMIFDYWGQGTLVTVSS
VL: AIQMTQSPSSLSASVGDRVTITCRASQGIRNDLGWYQQKPGKAPKLLIYAASSLQSGVPSRFAGRGSGTDFTLTISSLQPEDFATYYCLQDFNYPWHFGQGTKVEIK
notes: Histidine-mutated CDR variant of H4H12166P; human IgG4 Fc with S108P
- 100 nM monkey C5-mmh Bound (RU) (monkey C5-mmh): 48 RU
- Kd (monkey C5-mmh): 19.3 nM
- koff (monkey C5-mmh): 0.00241 s⁻¹
- kon (monkey C5-mmh): 125000 M⁻¹ s⁻¹
- t1/2 (monkey C5-mmh): 5 min
- t1/2 Ratio pH7.4/pH6.0 (human C5): 35

B4: H4H12166P8 (antibody, human IgG4, V domains shown)
VH: B3 VH with H99G, T103H
VL: B3 VL with L89H, H97T
notes: as for B3
- 100 nM monkey C5-mmh Bound (RU) (monkey C5-mmh): 53 RU
- Kd (monkey C5-mmh): 13.3 nM
- koff (monkey C5-mmh): 0.00269 s⁻¹
- kon (monkey C5-mmh): 203000 M⁻¹ s⁻¹
- t1/2 (monkey C5-mmh): 4 min
- t1/2 Ratio pH7.4/pH6.0 (human C5): 47

B5: H4H12166P9 (antibody, human IgG4, V domains shown)
VH: B3 VH with H99G, T103H
VL: B3 VL
notes: as for B3
- 100 nM monkey C5-mmh Bound (RU) (monkey C5-mmh): 69 RU
- Kd (monkey C5-mmh): 14.4 nM
- koff (monkey C5-mmh): 0.00261 s⁻¹
- kon (monkey C5-mmh): 181000 M⁻¹ s⁻¹
- t1/2 (monkey C5-mmh): 4 min
- t1/2 Ratio pH7.4/pH6.0 (human C5): 31

B6: H4H12166P10 (antibody, human IgG4, V domains shown)
VH: B3 VH with H99G, F107H
VL: B3 VL
notes: as for B3
- 100 nM monkey C5-mmh Bound (RU) (monkey C5-mmh): 24 RU
- Kd (monkey C5-mmh): 42.2 nM
- koff (monkey C5-mmh): 0.00279 s⁻¹
- kon (monkey C5-mmh): 66000 M⁻¹ s⁻¹
- t1/2 (monkey C5-mmh): 4 min
- t1/2 Ratio pH7.4/pH6.0 (human C5): 33
